# Results taken from the nanobody polyreactivity screen of Harvey et al. (2022).
# Assay: yeast display, Sf9 membrane polyspecificity reagent, FACS + sequencing; frameworks hold sequencing errors
# How it was run: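 Galactose induction of a Saccharomyces cerevisiae BJ5465 synthetic nanobody display library ran 36–48 hours. The cells were then stained for 1 hour at 4 °C with 10% biotinylated, detergent-solubilized Sf9 membrane reagent, pulled down on streptavidin microbeads and FACS-sorted into low and high (top ~1%) gates on expression and reagent-binding fluorescence. Labels for polyreactivity follow the gate of origin.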
row,Sequence,polyreactivity (PSR sort gate)
1,QVQLVESGGGLVQAGGSIRLSCAASGFTFTRYTMGWYRQAPGKERELVARITRSGGSTYYADSVKGRFTISRDNAKNTVYLQMNSLKPEDTAVYDCAAGYVVATRYDYWGQGTQVTLSS,high polyreactivity
2,QVQLVESGGGLVQAGGSLRLSCAASGFSFSSYAMGWYRQAPGTERELVATISVNGGSTNYADSVKGRFTISRDNAKNTVYLQMNSLIPEDTAVYYCNAKSYTRRSYYTPTVPGDYWGQGTQVTVSS,low polyreactivity
3,QVQLVESGGGLVQAGGSLRLSCAASGSIFSYYVMGWYRQAPGKERELVAAISWSGGSTYYADSVKGRFTISRDNAKNTVYLQMNSLKPEDTAVYYCAAGTYPYYWGQGTQVTVSS,low polyreactivity
4,QVQLGESGGGLVQAGGSLRLSCAASGLTFDPNAMGWYRQAPGKERELVATITQTDGSTYYADSVKGRFTISRDNAKNTVYLQMNSLKPEDTAVYYCAVDVDEPRYRRPFHHDYWGQGTQVTVSS,low polyreactivity
5,QVQLVESGGGLVQAGGSLRLSCAASGSTSDINAMGWYRPAPGKERELVAVITFSGGTTNYADSVKGRFTISRDNAKNTVYLQMNSLKPEDTAVYYCNADTLTTTRRFNPYDYWGQGTQVTVSS,low polyreactivity
6,QDQLEESGGGLSQAGGSLRLSCAASGINFPSYTMGWSRQATGKERELVAAIDSGGSTYYADSVKGRFTISRDNAKNSVYLQMNSLIPEDTAVYYCAAEPDTYWYTYDYWGQGTQVSVSS,low polyreactivity
7,QVQLVESAGGLVQAGGSLRLSCAASGITFSGYAMGWYRQAPGKERELVAAISWRGVRTYYADSVKGRFTISRDNAKNTVYLQMNSLKPEDTAVYYCAAVRYITKEFYWGQGTQVTVSS,high polyreactivity
8,QVQLVESGGGLVQAGGSLRLSCAASGFTFTYYTMGWYRQAPGKESELVAAISWSGGRTYYADSVKGRFTISRDNAKNTVYLQMNSLKPEDTAVYYCAAVYSSYYSSSYGYWGQGTQVTVSS,high polyreactivity
9,QVQLVESGGGLVQAGGSLRLSCAASGYTYGYNAMGSYRQAPGKERELVAAITKNGGSTYYADSVKGRFTISRDNAKNTVYLQMNSLKPEDTAVYYCAARIYYSRTFGYYYWGQGTQVTVSS,high polyreactivity
10,QVQRVESGAGLVQAGGILRLSCPASGSIFTNNPMGWSRQAPGKARELVAGISFRGSSTYADSVKGRFTISRDNAKNSVYLQMNSLNPVDPAVYYCAGDGLYWWMYYWGQGTQVTVSS,low polyreactivity
11,QVQLVESGGGLVQAGCSLLLSCDATGNIFRYYFMGWYRQAPGKEREFVAAITTSCGSTYYADSVKGRFTISRDNAKNTVYLQMNSLKQEDTAVYYCAKDYWVPGWAEYDYWGQGTQVTVSS,low polyreactivity
12,QVQLVESGGGLVQAGGRLRLSCAHSGIIFFFYAMGWYRQAPGKERELVAAISDDGVSTDYADSVKGRFTISRDNAKNTVYLQMNSLKPEDTAVYYCAAKTERVYPWFSFGYWGQGTQVTVSS,low polyreactivity
13,QVQLVESGRGLVQAGGSLRLSCAASGIIFGGYSMGWYRQAPGKERELVAAISGIGSRTYYADSVKGRFTISRDNAKNTVYLQMNSLKPEDTAVYYCNADQVYGYNYWGQGTQVTVSS,high polyreactivity
14,QVQLVESGGGLVQAGGSLRLSCAASGRIFYRYSMGWYRQAPGKERELVAAIRYSGGTTYADSVKGRFTISRDNAKNTVYLQMNSLKPEDTAVYYCAARASLWGGFESWGQGTQVTVSS,high polyreactivity
15,QVQLVESGGGLVQAGGSLRLSCAASGIIFDDYAMGWYRQAPGKERELVAAISRGGSTYYADSVKGRFTISRDNAKNTVYIQMNSLKPEDTAVYYCAAVVYTIYARYGYCGQGTQVTVSS,high polyreactivity
16,QVQLVESGGGLVQAGGSLRLSCAASGFIFYFYTMGWYRQAPGKERELVAGITWLDGSTYYADSVKGRFTISRDNAKNTVYLQMNSLKPEDTAVYYCAVDYDLVVSPYYYWGQGTQVTVSS,low polyreactivity
17,QVQLVESGGGLVQAGGSLRLSCAASGFTFSYYAMGWYRQAPGKERELVAAISWSGGSTYYADSVKGRFTISRDNAKNTVYLQMNSLKPEDTAVYYCARVLTRPGRLDYWGQGTQVTVSS,high polyreactivity
18,KVQLVESGGRVVQAGGSLRLSCAASGSIFGYNDMGWYRPAPGKERELVATITWGGGRTRYADSVKGRFTISRDNAKKTVYLQMNSLKPEETAVYYCARDRGKITPYDYWGQGTQVTVSS,low polyreactivity
19,QVQLVESGGGLVQAGGSLRLSCAASGFTFTNNAMGWYRQAPGKERELVAAIRRSGTNTYYADSVKGRFTISRDNAKNPVYLQMNSLKPEDTAVYYCATDGYEYTDYGSSGYDYWGQGTQVTVSS,low polyreactivity
20,QVQLVESGGGLVQAGGSLRLSCAASGLIFGYYGMGWYRQAPGKERELVAVITDDDSTTYADSVKGRFTISRDNAKNTVYLLMNSLKPEDTAVYYCNADNLLGRFDSWGQGTQVTVSS,low polyreactivity
21,QVQLVESGGGLVQAGGSLRLSCAASGSIFDSYVMGWYRQAPGKERELVAAITYSGGSTYADSVMGRFTISRDNAKNTVYLQMNSVKPEDTAVYYCAAASYFYLYLLEDYWGQGTQVTVSS,low polyreactivity
22,QVQLVESGGGLVQAGGSLRLSCAASGSIFIPYAMGWYRQAPGKERDLVAAIRYSGASTYYADSVKGRFTISRDNAKNTVFLQMNSLKPEDTAVYYCAARVVDQEVGRPYYYWGQGTQVTVSS,high polyreactivity

row,Sequence,polyreactivity (PSR sort gate)
1,QVQLVESGGGLVQAGGSLRLSCAASGYTFVYNAMGWYRQAPGKEREFVAAITWSGTSTRYADSVKGRFTISRDNAKYTVYLQMKSLKPEDTAVYYCAARRRSAQSGSYNHWGQGTQVTVSS,high polyreactivity
2,KVQLVESGGGLVQAGGSLRLSCAASGRTFPYYVMGWYRQAHGKERELVAAIDVGGGSTYYADSVKGRFTISRDNAKNTVYLQMNSLKPEVTAVYYCAAQVDYLAHYGYWGQGTQVTVSS,low polyreactivity
3,QVQLVESGGGLVQAGGSLRLSCAASGSTFVANTMGWYRQAPGKERELGAAITSDGGSTSYADSVKGRFSISRDNAKNTVYLQMNSLKPEDTAVYHCAAEYGGSSAKYGYWGQGTQVTVSS,low polyreactivity
4,QVQLEESGGGLVQAGGSLRLSCAASGSIFYSNAMGWYRQAPGKERELVAAISVSGVSTYYADSVKGRFTISRDNAKNTVYLQMNSLKPEDTAVYYCAAQYVTRGLYLVAFFSYDYWGQGTQVTVSS,low polyreactivity
5,QVQLVESGGGVVQAGGSLRLSCAASGRTFPLYAMGWYRQAPGKERELVAAIRTGGSTNYADSVKGRFTISRDNAKNTVYLQMNSLKPEDTAVYYCAAVQRTDRSAHYSWGQGTQVTVSS,low polyreactivity
6,QVQLVESGGGLVQAGGSLRLSCAASGFTFRAYAMGWSRQAPGKERELVAAISTGGGSTYYADSVKGRFTISRDNAKNTVYLQMNSLKPEDTAVYYCNALPQRRYYYWGQGTQVTVSS,high polyreactivity
7,QVQLVESGGGLVQAGGSLRLSCAASGSIIYLYAMGWYRQAPGKERELVAAISKSGSRTYYADSVKGRFTISRDNAKNTVYLQMNSLKPEDTAVYYCATPYRVYGEGYYWGQGTQVTVSS,high polyreactivity
8,QVQLVESGGGLVHAGGSLRLSCAASGRIFAPYAMGWYRQAPGKERELVAAITSRGGSTYYADSVKGRFTISRDTAKNTVYLQMNSLKPEDTAVYYCNADYYGRPYYYWGQGTQVTVSS,high polyreactivity
9,QVQLVESGGGLLQAGGSLRLSCAASGNIFGWYAMGWYRQAPGKERELVAAISSGGRTNYADSVKGRFTISRDNAKNTVYLQMNSLKPEDTAVYYCATPLQQLYGYWGQGTQVSVSS,low polyreactivity
10,QVQLVESGGGLVQAGGSLRLSCAASGSIFWPNTMGWYRQAPGKERELVATISSGGDTSYADSVKGRFTISRDNAKNTVYLQMNSLKPEDTAVYYCAKRITVDDVHPRAQTYNYWGQGTQVTVSS,low polyreactivity
11,QVQLVESGGGLVQAGGSLRLSCAASGFIFDKYAMGWYRQAPGKERELVAAINWSGDSTYYADSVKGRFTISRDNAKNTVYLQMNSLKPEDTAVYYCNARRPRFRYDYWGQGTQVTVSS,high polyreactivity
12,QVQLEESGGGLVQAGGSLRLSCAASGFTFSYYAMGWYRQATGKERELVAAITSSAGSTYYADSVKGRFTISRDYAKNSFYLQMTSLKPEDTEVYYCYAVYSKLNGGYDYWGQGTQVTVSS,low polyreactivity
13,QVQLVESGGGLVQAGGSLRLSCAASGRIFRGYAMGWYRQAPGKERELVAAISASGGSTYYADSVKGRFTISRDNAKNTVYLQMNSLKPEDTAVYYCATTIFYTYYGLYDYWGQGTQVTVSS,high polyreactivity
14,QVQLVESGGGLVQAGGSLRLSCAASGSIFFYNVMGWYRQAPGKERELVAAITRSGGRTYYADSVKGRFTISRDNAKNNVYLQMNSLKPEDTAVYYCAAALGGKFDYWGQGTQVTVSS,high polyreactivity
15,QVQLVESGGGIVQAGGSLRLSCAASGSIFYHNAMGWYRQAPGKERELVAAITGSGGSTYYADSVKGRFTISRDNAKNTVYLQMNSLKPEDTAVYYCAADGYTKWWISWGYDYWGQGTQVTVSS,low polyreactivity
16,QVQLVESGGGLVQAGGSLRLSCAASGITFYGYAMGWYRQAPGKERELVARISRGGRTYYADSVKGRFTISRDNAKNTVYLQMNSLKPEDTAVYYCAAGKYWYAGKYLYDYWGQGTQVTVSS,high polyreactivity
17,QVQLVESGGGLVQAGGSLRLSCAASGSIFPKYAMGWYRQAPGKERELVATISYRGGRTYYADSVKGRFTISRDNAKNTVYLQMYSLKPEDTAVYYCATRYPYYPFYVGIYELDYWGQGTQVTVSS,low polyreactivity
18,QFQLVESVGGLVQAGGSLRLTCAASGRIFLNYDMGWYRQEPGKDRELVAAITTGGSTYADSVKGRFTISRDNAKNTVYLQMNSLKAEDTAVYYCANRDRNKRDNWGQGTQVTGSS,low polyreactivity
19,QVQLVESGGGLVQAGGSLRLSCAASGSTFWYYAMGWYRQAPGKEREMVATIRWRGGSTYYADSVKGRFTISRDNAKNTLYLQMNSLKPEDTAVYYCAADTWAYVGYYYGFDYWGQGTQVTVSS,high polyreactivity
20,QVQLVESGGGLVQAGGSLRLSCAASGSIFQRNAMGSYRQAPGKERELVAAITYSGGGTYYADSVKGRFTISRDNAKNTVYLQMNSLKPEDTAVYYCNADGPSTPWVDYGYWGQGTQVTVSS,low polyreactivity
21,QVQLVESGGGLVQAGGSLRLSCAASGITFERNGKGWYRQAPGKEWELVAAIRSGGSTYYADSVKGRFTISRDNAKNTVYLQMNSLKPEDTAVYYCAAVTQGGYTYLGDYWGQGTQVTVSS,low polyreactivity
